Test results taken from patent US20250289892A1 (TAIZHOU ENZE MEDICAL CENTER GROUP, published 2025).

Key:
[1] = target: T1, antigenic peptide of amino acid sequence at positions 106-126 of a heavy chain of HLA-G molecules … (human); assay: ELISA, peptide coated at 2 ug/ml, antibody stock 3.0 mg/mL titrated
T1 construct: Synthesized peptide, coated on ELISA plates at 2 ug/ml; also called immunogen
T1 peptide: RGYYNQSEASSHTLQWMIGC
Description: (§1) The antigen (SEQ No. 17 [sequence]) was diluted with the coating buffer, with the final concentration of 2 μg/ml, 100 ul/well, and placed at 4° C. overnight; washed with the wash buffer twice, blocked with the blocking buffer at 200 ul/well, incubated at 37° C. for 2 hours; then washed once with the wash buffer. The purified antibody was diluted by 2-fold starting from 200-fold (PBS), and the blank control (blank) was PBS, 100 ul/well, and incubated at 37° C. for 1 hour; and then washed 3 times with the wash buffer. The secondary antibody diluted with PBS by 20,000-fold was added, 100 ul/well, and incubated in a 37° C. incubator for 1 hour; taken out and washed 3 times with a wash buffer. Then the color development was performed with a developing solution of 100 ul/well for 5-15 minutes. Then 50 ul of stop solution was added to each well to stop. The absorbance value was measured at dual wavelengths (450, 630), and a chart was drawn for analysis.

HLA-G2 standard protein = target: T2, HLA-G2 standard protein (human, UniProt P17693-2 25-246, limits assumed); assay: immunoblotting of standard proteins after denaturing PAGE
T2 construct: Standard protein run on denaturing PAGE for immunoblotting
Description: (§2) The denaturing PAGE electrophoresis of the standard proteins of HLA-G isoforms (HLA-G1, HLA-G2, HLA-G3, HLA-G4, HLA-G5, HLA-G6 and HLA-G7) was performed. After semi-dry electroporating, 5% skimmed milk powder was used to block at room temperature for 4 hours, and washed with 0.2% TBS (Tween-20 PBS).

HLA-G7 standard protein = target: T3, HLA-G7 standard protein (human, UniProt P17693-7 25-116, limits assumed); assay: as above
T3 construct: Standard protein run on denaturing PAGE for immunoblotting
Description: as §2

HLA-G3 standard protein = target: T4, HLA-G3 standard protein (human, UniProt P17693-3 25-154, limits assumed); assay: as above
T4 construct: Standard protein run on denaturing PAGE for immunoblotting
Description: as §2

HLA-G6 standard protein = target: T5, HLA-G6 standard protein (human, UniProt P17693-6 25-227, limits assumed); assay: as above
T5 construct: Standard protein run on denaturing PAGE for immunoblotting
Description: as §2

[2] = target: T1, antigenic peptide of amino acid …; assay: ELISA, peptide coated at 2 ug/ml, antibody titrated; logistic fit
Description: as §1

B1: monoclonal antibody (YWHG-4) against HLA-G isoforms (HLA-G1, HLA-G4, HLA-G5) (antibody, V domains shown)
VH: VQLQQSGAEVVRPGTSVKVSCKASGYASTNYLVEWIKQRPGQGLEWIGVINPGSGRIYYSEKFKGKTTLTADKSSSNAYMQLSSLTSDDSAVYFCARHYGNSAWFAYWGQGTLVTVSA
VL: DIVITQDELSLPVSLGDQAAISCRSSQSIVHSNGNTYLEWYLQKPGQSPKLLIYKVSNRFSGVPDRFRGSGSGTDFTLKISRVEAEDLGVYYCFQASHVPYTFGGGTKLEIKR
notes: FITC-labeled in the flow cytometry; also called hybridoma CCTCC NO: 2021204
- antibody dilution factor corresponding to 1/2 OD value [1]: 197000 fold dilution
- binding result (HLA-G2 standard protein): no binding
- binding result (HLA-G7 standard protein): no binding
- binding result (HLA-G3 standard protein): no binding
- binding result (HLA-G6 standard protein): no binding
- Ka [2]: 9.87e+09 M⁻¹
